Each block holds one molecule with its values, some of them ahead of it.
T1: Suppressor of fused (Sufu), endogenous mouse protein (mouse (endogenous in E10.5 embryos), UniProt Q9Z0P7 1-484)
T1 construct: Suppressor of fused (Sufu), mouse, endogenous in E10.5 embryos; source: endogenous, E10.5 mouse whole embryo lysate (control or Tbx3 null)
T1 sequence (looked up): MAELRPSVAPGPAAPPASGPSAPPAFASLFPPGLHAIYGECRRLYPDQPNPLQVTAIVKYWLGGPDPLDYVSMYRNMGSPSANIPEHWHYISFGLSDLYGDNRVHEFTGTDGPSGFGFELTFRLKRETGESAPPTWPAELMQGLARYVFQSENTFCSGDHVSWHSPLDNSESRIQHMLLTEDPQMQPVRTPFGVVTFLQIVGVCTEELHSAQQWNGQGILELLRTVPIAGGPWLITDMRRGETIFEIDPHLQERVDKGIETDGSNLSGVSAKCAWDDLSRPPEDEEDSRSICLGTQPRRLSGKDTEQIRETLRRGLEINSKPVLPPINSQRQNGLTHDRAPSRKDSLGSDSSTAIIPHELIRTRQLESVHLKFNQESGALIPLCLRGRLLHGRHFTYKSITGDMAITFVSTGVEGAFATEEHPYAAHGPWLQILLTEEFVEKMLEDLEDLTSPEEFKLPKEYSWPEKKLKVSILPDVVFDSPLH

B1: full length Gli3 (Gli3FL), endogenous mouse protein (natural protein, mouse (endogenous in E10.5 embryos), UniProt Q61602 1-1583, looked up)
chain: MEAQAHSSTATERKKAENSIGKCPTRTDVSEKAVASSTTSNEDESPGQIYHRERRNAITMQPQSVQGLNKISEEPSTSSDERASLIKKEIHGSLPHLAEPSLPYRGTVFAMDPRNGYMEPHYHPPHLFPAFHPPVPIDARHHEGRYHYDPSPIPPLHVPSALSSSPTYPDLPFIRISPHRNPTAASESPFSPPHPYINPYMDYIRSLHSSPSLSMISAARGLSPTDAPHAGVSPAEYYHQMALLTGQRSPYADILPSAATAGAGAIHMEYLHAMDSTRFPSPRLSARPSRKRTLSISPLSDHSFDLQTMIRTSPNSLVTILNNSRSSSSASGSYGHLSASAISPALSFTYPSAPVSLHMHQQILSRQQSLGSAFGHSPPLIHPAPTFPTQRPIPGIPTVLNPVQVSSGPSESSQSKPTSESAVSSTGDPMHNKRSKIKPDEDLPSPGSRGQQEQPEGTTLVKEEADKDESKQEPEVIYETNCHWEGCTREFDTQDQLVHHINNDHIHGEKKEFVCRWLDCSREQKPFKAQYMLVVHMRRHTGEKPHKCTFEGCTKAYSRLENLKTHLRSHTGEKPYVCEHEGCNKAFSNASDRAKHQNRTHSNEKPYVCKIPGCTKRYTDPSSLRKHVKTVHGPEAHVTKKQRGDMHPRPPPPRDSGSHSQSRSPGRPTQGAFGEQKELSNTTSKREECLQVKTVKAEKPMTSQPSPGGQSSCSSQQSPISNYSNSGLELPLTDGGSVADLSAIDETPIMDSTISTATTALALQARRNPAGTKWMEHIKLERLKQVNGMFPRLNPILPSKAPAVSPLIGNGTQSNNNYSSGGPGTLLPSRSDLSGVDFTVLNTLNRRDSNTSTISSAYLSSRRSSGISPCFSSRRSSEASQAEGRPQNVSVADSYDPISTDASRRSSEASQGDGLPSLLSLTPVQQYRLKAKYAAATGGPPPTPLPHMERLSLKTKMALLGEGRDSGVTLPPVHPPRRCSDGGGHTYRGRHLMPHDALANSVRRASDPVRTVSENMSLARVQRFSSLNSFNPPNLPPSVEKRSLVLQNYTRQESSQPRYFQASPCPPSITENVALEALTMDADANLNDEDLLPDDVVQYLNSQNQTGYGQQLQSGISEDSKVAHEPEDLDLAGLPDSHVGQEYPALEQPCSEGSKTDLPIQWNEVSSGTSDLSSSKLKCGQQRPSAQQPRGFGLYNNMVVHPHNLWKVGTGPAGGYQTLGENSSTYNGPEHFAIHSGDGLGTNGNTFHEQPFKTQQYGSQLNRQPLTSSALDHACGTGIQGSKLKGNSLQENGGLLDFSLSVAPNELAGNTVNGMQTQDQMGQGYIAHQLLSGSMQHQGPSRPGQQVLGQVGATSHINIYQGTESCLPGTQDNSSQPSSMAAIRGYQPCASYGGNRRQAMPRGNLTLQQGQLSDMSQSSRVNSIKMEAQGQSQQLCSTVQNYSGQFYDQTMGFSQQDRKAGSFSLSDANCLLQGNGTENSELLSPGANQVTSTVDSFESHDLEGVQIDFDAIIDDGDHTSLMSGALSPSIIQNLSHSSSRLTTPRASLPFPSLSMGTTNMAIGDMSSLLTSLAEESKFLAVMQ
notes: Gli3 transcription factor, mouse, the unprocessed full length form (Gli3FL band on anti-Gli3 immunoblots); also called GliFL; source: endogenous, E10.5 mouse forelimb bud lysate or E10.5 whole embryo lysate (control or Tbx3 null)
B2: Kif7, endogenous mouse protein (natural protein, mouse (endogenous in E10.5 embryos), UniProt B7ZNG0 1-1348, looked up)
chain: MGLEAQRLPGAEEAPVRVALRVRPLLPKELLHGHQSCLRVEPERGRITLGRDRHFGFHVVLGEDTGQEAVYQACVQPLLEAFFEGFNATVFAYGQTGSGKTYTMGEASVASLHEDEQGIIPRAMAEAFKLIDENDLLDCLVHVSYLELYKEEFRDLLEVGTASRDIQLREDDRGNVVLCGVKEVDVEGLDEVLSLLEMGNAARHTGATHFNRLSSRSHTVFTVTLEQRGRTPSRLPRPAAGHLLVSKFHFVDLAGSERVLKTGSTGERLKESIQINSTLLALGNVISALGDPQRRGSHIPYRDSKITRILKDSLGGNAKTVMIACVSPSSSDFDETLNTLNYASRAQNIRNRATVNWHPEAERVPEEQAAGARGPPRHRSETRIIHRGRRVPCPAVGSAAVAAGLGAECARCRARTSAAYSLLRELQAEPGLPGAAARKVRDWLCAVEGERSTLSSASGPDSGIESAPAEDQAAQGTSGRKGDEGTQQLLTLQSQVARLEEENRDFLAALEDAMEQYKLQSDRLREQQEEMVELRLRLELAQPGWGAPGLLQGLPPGSFVPRPHTAPLGGAHTHMLGMMPSTCLPGEEVSSEQQVVSGKEVKAEVLAQADKLRSASSTTSEEEGEEEEEEEEEEEEPPRRTLYLRRNGISNWSQRAGLSPGSPPDRKGPEVCPEEPAAAIPAPQAVGSGKVPVQTRQAPAAMASEWRLAQAQQKIRELAINIRMKEELIGELVRTGKAAQALNRQHSQRIRELEQEAERVRAELCEGQRQLRELEGREPQDASERSRLQEFRKRVAAAQSQVQVLKEKKQATERLVSLSAQSETRLQELERNVQLMRRQQGQLQRRLREETEQKRRLETEMNKRQHRVKELELKHEQQQKILKIKTEEIAAFQRKRRSGSNGSVVSLEQQQKIEEQKKWLDQEMEKVLQQRRALEELGEELRKREVILAKKEALMQEKTGLESKRLRSSQALNEDIVRVSSRLEHLEKELSEKSGQLRQGSAQNQQQIRGEIDTLRQEKDSLLKQRLEIDSKLRQGSLLSPEEERTLFQLDEAIEALDAAIEYKNEAITCRQRVLRASASLLSQCEMNLMAKLSYLSSSETRALLCKYFDKVVTLREEQHQQQIAFSELEMQLEEQQRLVYWLEVALERQRLEMDRQLTLQQKEHEQNVQLLLQQGRDHLGEGLADSKRQYEARIHALEKELGRHMWINQELKQKLSAGSTAGQSQGCERRSLCLENRQCLGNEDGLHPAAPEPLWQSSLLEGVSRVWDESRDLVHAPLPLTWKRSSLCSEQGSSEESRVRETTEPPVGRVLPMGEVGLSWNFGPLPKPRWEPRRTSPGMIDVRKNPL
notes: Kif7, ciliary kinesin family protein, mouse, endogenous in E10.5 forelimb buds and whole embryos; source: endogenous, E10.5 mouse forelimb bud lysate or E10.5 whole embryo lysate (control or Tbx3 null)

Key:
[1] = biological target: Kif7, endogenous mouse protein (mouse (endogenous in E10.5 embryos)) (UniProt B7ZNG0); test: co-IP; as a4, but lysates of Tbx3 null (Tbx3 delta-fl/delta-fl, ko) E10.5 embryos; Kif7-Gli3 co-precipitate compared with control (wt) embryos by densitometry
[2] = biological target: Suppressor of fused (Sufu), endogenous mouse protein (mouse (endogenous in E10.5 embryos)) (UniProt Q9Z0P7); test: co-IP; endogenous proteins; E10.5 whole mouse embryo lysates in Dignam buffer C, control (wt) embryos; Sufu-Gli3, Sufu-Kif7 and Tbx3-Spop also assayed in Tbx3 null (Tbx3 delta-fl/delta-fl, ko) embryos, where less Sufu-Gli3 and Sufu-Kif7 co-precipitated; 5-10 ug antibody overnight at 4 C, Protein-G Dynal beads, immunoblot, densitometry
[3] = biological target: B2; test: co-IP; as a4, but lysates of Tbx3 null (Tbx3 delta-fl/delta-fl, ko) E10.5 embryos; Kif7-Gli3 co-precipitate compared with control (wt) embryos by densitometry; conditions: partners not purified
[4] = biological target: T1, Suppressor of fused (Sufu), endogenous …; test: co-IP; endogenous proteins; E10.5 whole mouse embryo lysates in Dignam buffer C, control (wt) embryos; Sufu-Gli3, Sufu-Kif7 and Tbx3-Spop also assayed in Tbx3 null (Tbx3 delta-fl/delta-fl, ko) embryos, where less Sufu-Gli3 and Sufu-Kif7 co-precipitated; 5-10 ug antibody overnight at 4 C, Protein-G Dynal beads, immunoblot, densitometry; conditions: partners not purified
[5] = biological target: T2, Gli3, endogenous mouse protein as precipitated by anti-Gli3 (Gli3FL and Gli3R not told apart) (mouse (endogenous in E10.5 embryos), UniProt Q61602 1-1583); test: co-IP; as a4, but lysates of Tbx3 null (Tbx3 delta-fl/delta-fl, ko) E10.5 embryos; Kif7-Gli3 co-precipitate compared with control (wt) embryos by densitometry; conditions: partners not purified
T2 construct: Gli3 transcription factor, mouse, endogenous; Used only for the lanes in which Gli3 was the bait (IP with anti-Gli3, blot for the partner); the forms Gli3FL and Gli3R are told apart only on anti-Gli3 blots; also called endogenous Gli3; Gli3 proteins; source: endogenous, E10.5 mouse forelimb bud lysate or E10.5 whole embryo lysate (control or Tbx3 null)

band intensity ratio of control to mutant [1]: 0.25
fold more co-precipitated in controls than in Tbx3 mutants [2]: > 9 fold
Molecule: Gli3 repressor form (Gli3R), endogenous mouse protein (from UniProt Q61602 1-1583) (domain or fragment)

fold more co-precipitated in Tbx3 mutants than in controls [1]: 3.3 fold
Molecule: Gli3 repressor form (Gli3R), endogenous mouse protein (from UniProt Q61602 1-1583)

Molecule: B1
band intensity ratio of control to mutant [3]: 0.1
fold more co-precipitated in controls than in Tbx3 mutants [4]: 4.6 fold

Molecule: B2
band intensity ratio of control to mutant [5]: 0.1

From PMC4829432, “T-box3 is a ciliary protein and regulates stability of the Gli3 transcription factor to control digit number” (eLife, 2016)
